The values below come from US20210060068A1 (Stanford University, published 2021).

T1: wild-type mouse IL-2Rβ (mouse, UniProt P16297 27-240, limits assumed)
T1 construct: Recombinant protein coated on the SPR chip or used to stain yeast; also called wild-type IL-2Rβ; mIL-2Rβ
T1 sequence: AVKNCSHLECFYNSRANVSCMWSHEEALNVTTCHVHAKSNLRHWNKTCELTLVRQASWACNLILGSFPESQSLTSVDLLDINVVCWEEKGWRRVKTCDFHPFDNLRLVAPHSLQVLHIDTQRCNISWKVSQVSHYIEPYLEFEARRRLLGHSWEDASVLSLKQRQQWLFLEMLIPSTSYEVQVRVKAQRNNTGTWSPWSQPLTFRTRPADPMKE

B1: orthogonal mouse IL-2Rβ H134D Y135F (receptor)
chain: T1 sequence with H134D, Y135F
notes: Recombinant protein coated on the SPR chip or used to stain yeast; also called orthoIL-2Rβ; mIL-2Rβ H134D Y135F
B2: ortho human IL-2Rβ H133D Y134F mutant tetramers (receptor)
chain: AVNGTSQFTCFYNSRANISCVWSQDGALQDTSCQVHAWPDRRRWNQTCELLPVSQASWACNLILGAPDSQKLTTVDIVTLRVLCREGVRWRVMAIQDFKPFENLRLMAPISLQVVHVETHRCNISWEISQASDFFERHLEFEARTLSPGHTWEEAPLLTLKQKQEWICLETLTPDTQYEFQVRVKPLQGEFTTWSPWSQPLAFRTKPAALGKDT
notes: Tetramers used to stain yeast; also called ortho-hIL-2Rβ; ortho hIL-2Rβ
B3: wild-type mouse IL-2 (ligand)
chain: APTSSSTSSSTAEAQQQQQQQQQQQQHLEQLLMDLQELLSRMENYRNLKLPRMLTFKFYLPKQATELKDLQCLEDELGPLRHVLDLTQSKSFQLEDAENFISNIRVTVVKLKGSDNTFECQFDDESATVVDFLRRWIAFCQSIISTSPQ
notes: Soluble protein flowed over the SPR chip; also called wt mIL-2; wild-type IL-2

In the experiment “wild-type mouse IL-2” the target is B3. Nature of the experiment: surface plasmon resonance. Background: Surface plasmon resonance follows binding to a sensor surface in real time, without labels.
Experiment [1] concerns the target T2, yeast-displayed wild-type human IL-2 (human, UniProt P60568 21-153).
T2 construct: also called wild-type IL-2; hIL-2
Nature of the experiment: FACS, yeast-displayed hIL-2 stained with receptor tetramers. The method, then: We introduced the H133D Y134F mutations that were used to create the mouse orthol L-2Rβ into human IL-2Rβ, as these residues are highly conserved between mouse and human.
Yeast display of IL-2. […] Transformed yeast were passaged once in SDCAA and yeast cultures in log phase were pelleted and resuspended at an OD600 of 1.0 in SGCAA induction media containing 10% SDCAA and cultured for 24 hr at 20° C.
(In flow cytometry, cells or beads pass a laser one at a time.)

In the next experiment the target is T1, wild-type mouse IL-2Rβ. Nature of the experiment: SPR, soluble IL-2 over a receptor-coated chip, 1:1 binding model. The procedure:
Binding was determined by surface plasmon resonance (SPR) and curves were fitted using a 1:1 binding model.

Substitutions are numbered along the chain they refer to. Numbers in names are those of the source.

T2 sequence (P60568 21-153): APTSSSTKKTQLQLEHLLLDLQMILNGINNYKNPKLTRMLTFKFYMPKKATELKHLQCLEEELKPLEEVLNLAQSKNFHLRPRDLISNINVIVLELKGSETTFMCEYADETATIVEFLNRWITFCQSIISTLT

As for B1, the binding result with wild-type mouse IL-2 is given as “no binding”. Turning to B2, the binding result in experiment [1] is recorded as “no binding”.

On to B3, for which, in the experiment with wild-type mouse IL-2Rβ, the binding result is recorded as “binds”.
